Measurements: article PMC6123813 (Communications biology, 2018)

Key:
[1] = biological target: YSA peptide (synthetic construct); conditions: cited from earlier work
[2] = biological target: m-ephrinA1 (Homo sapiens) (UniProt P20827); conditions: cited from earlier work
[3] = biological target: the molecule itself; experiment: FRET or BRET; FSI-FRET (two-photon spectral imaging) between EphA2-mTurq and EphA2-eYFP in the plasma membrane of live HEK293T cells in hypo-osmotic medium; no ligand; dimer to monomers, two-dimensional constants in receptors per μm^2

EphA2, sequence (P29317 24-537): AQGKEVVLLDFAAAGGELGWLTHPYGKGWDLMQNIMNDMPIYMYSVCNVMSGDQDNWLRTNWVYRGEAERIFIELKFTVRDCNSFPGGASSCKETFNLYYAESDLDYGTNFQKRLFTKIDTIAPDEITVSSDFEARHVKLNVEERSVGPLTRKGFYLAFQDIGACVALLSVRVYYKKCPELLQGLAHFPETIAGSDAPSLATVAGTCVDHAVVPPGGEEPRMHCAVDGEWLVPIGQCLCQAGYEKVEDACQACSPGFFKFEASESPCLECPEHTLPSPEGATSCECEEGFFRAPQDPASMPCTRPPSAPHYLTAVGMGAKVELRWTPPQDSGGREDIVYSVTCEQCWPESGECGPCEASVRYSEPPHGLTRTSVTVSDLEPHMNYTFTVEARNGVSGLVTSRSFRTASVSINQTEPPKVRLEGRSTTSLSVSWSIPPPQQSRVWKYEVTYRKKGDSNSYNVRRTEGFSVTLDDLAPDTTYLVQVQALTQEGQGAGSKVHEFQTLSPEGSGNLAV
m-ephrinA1 (Homo sapiens), sequence (P20827 19-182): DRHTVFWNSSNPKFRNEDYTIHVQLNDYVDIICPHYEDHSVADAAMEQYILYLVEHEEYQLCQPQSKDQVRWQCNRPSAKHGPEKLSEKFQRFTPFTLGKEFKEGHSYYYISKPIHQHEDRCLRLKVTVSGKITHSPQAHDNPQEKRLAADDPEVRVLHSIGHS

Molecule | Kd [1] [nM] | Kd [2] [nM] | stoichiometry N [3]
EphA2 (from UniProt P29317) | 200 | 25 | –
EphA2 L223R/L254R/V255R triple mutant, full-length, tagged at the C-terminus with mTurquoise or eYFP (receptor, UniProt P29317 24-976, looked up) AQGKEVVLLDFAAAGGELGWLTHPYGKGWDLMQNIMNDMPIYMYSVCNVMSGDQDNWLRTNWVYRGEAERIFIELKFTVRDCNSFPGGASSCKETFNLYYAESDLDYGTNFQKRLFTKIDTIAPDEITVSSDFEARHVKLNVEERSVGPLTRKGFYLAFQDIGACVALLSVRVYYKKCPELLQGLAHFPETIAGSDAPSRATVAGTCVDHAVVPPGGEEPRMHCAVDGEWRRPIGQCLCQAGYEKVEDACQACSPGFFKFEASESPCLECPEHTLPSPEGATSCECEEGFFRAPQDPASMPCTRPPSAPHYLTAVGMGAKVELRWTPPQDSGGREDIVYSVTCEQCWPESGECGPCEASVRYSEPPHGLTRTSVTVSDLEPHMNYTFTVEARNGVSGLVTSRSFRTASVSINQTEPPKVRLEGRSTTSLSVSWSIPPPQQSRVWKYEVTYRKKGDSNSYNVRRTEGFSVTLDDLAPDTTYLVQVQALTQEGQGAGSKVHEFQTLSPEGSGNLAVIGGVAVGVVLLLVLAGVGFFIHRRRKNQRARQSPEDVYFSKSEQLKPLKTYVDPHTYEDPNQAVLKFTTEIHPSCVTRQKVIGAGEFGEVYKGMLKTSSGKKEVPVAIKTLKAGYTEKQRVDFLGEAGIMGQFSHHNIIRLEGVISKYKPMMIITEYMENGALDKFLREKDGEFSVLQLVGMLRGIAAGMKYLANMNYVHRDLAARNILVNSNLVCKVSDFGLSRVLEDDPEATYTTSGGKIPIRWTAPEAISYRKFTSASDVWSFGIVMWEVMTYGERPYWELSNHEVMKAINDGFRLPTPMDCPSAIYQLMMQCWQQERARRPKFADIVSILDKLIRAPDSLKTLADFDPRVSIRLPSTSGSEGVPFRTVSEWLESIKMQQYTEHFMAAGYTAIEKVVQMTNDDIKRIGVRLPGHQKRIAYSLLGLKDQVNTVGIPI | – | – | 2
